Laboratory results taken from PMC2683190 (Neurobiology of disease, 2009).

Legend:
[1] = target: T1, soluble LIFR (leukemia inhibitory factor receptor) (UniProt P42702 45-833); assay: SPR
T1 sequence (looked up): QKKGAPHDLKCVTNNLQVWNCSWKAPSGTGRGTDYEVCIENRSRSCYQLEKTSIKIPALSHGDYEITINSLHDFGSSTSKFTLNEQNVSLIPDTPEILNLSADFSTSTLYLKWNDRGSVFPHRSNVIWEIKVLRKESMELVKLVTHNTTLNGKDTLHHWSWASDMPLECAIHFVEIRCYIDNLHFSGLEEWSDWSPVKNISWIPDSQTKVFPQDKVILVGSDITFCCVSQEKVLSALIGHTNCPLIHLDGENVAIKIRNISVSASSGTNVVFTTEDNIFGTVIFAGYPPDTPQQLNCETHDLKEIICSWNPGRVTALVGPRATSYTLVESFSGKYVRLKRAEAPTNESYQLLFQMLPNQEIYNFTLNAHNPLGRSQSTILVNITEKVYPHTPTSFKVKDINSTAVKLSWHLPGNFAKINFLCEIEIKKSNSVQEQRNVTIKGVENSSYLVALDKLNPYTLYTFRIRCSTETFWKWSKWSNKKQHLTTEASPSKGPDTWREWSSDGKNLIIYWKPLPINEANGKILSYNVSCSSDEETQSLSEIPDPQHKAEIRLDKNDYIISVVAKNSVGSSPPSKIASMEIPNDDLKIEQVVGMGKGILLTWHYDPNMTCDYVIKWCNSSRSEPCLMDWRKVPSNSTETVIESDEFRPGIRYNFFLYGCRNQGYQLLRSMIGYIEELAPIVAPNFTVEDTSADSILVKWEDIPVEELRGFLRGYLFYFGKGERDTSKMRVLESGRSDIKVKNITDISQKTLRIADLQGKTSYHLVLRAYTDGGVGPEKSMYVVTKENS

[2] = target: T2, soluble gp130 (glycoprotein 130) (UniProt P40189 23-619); assay: SPR
T2 sequence (looked up): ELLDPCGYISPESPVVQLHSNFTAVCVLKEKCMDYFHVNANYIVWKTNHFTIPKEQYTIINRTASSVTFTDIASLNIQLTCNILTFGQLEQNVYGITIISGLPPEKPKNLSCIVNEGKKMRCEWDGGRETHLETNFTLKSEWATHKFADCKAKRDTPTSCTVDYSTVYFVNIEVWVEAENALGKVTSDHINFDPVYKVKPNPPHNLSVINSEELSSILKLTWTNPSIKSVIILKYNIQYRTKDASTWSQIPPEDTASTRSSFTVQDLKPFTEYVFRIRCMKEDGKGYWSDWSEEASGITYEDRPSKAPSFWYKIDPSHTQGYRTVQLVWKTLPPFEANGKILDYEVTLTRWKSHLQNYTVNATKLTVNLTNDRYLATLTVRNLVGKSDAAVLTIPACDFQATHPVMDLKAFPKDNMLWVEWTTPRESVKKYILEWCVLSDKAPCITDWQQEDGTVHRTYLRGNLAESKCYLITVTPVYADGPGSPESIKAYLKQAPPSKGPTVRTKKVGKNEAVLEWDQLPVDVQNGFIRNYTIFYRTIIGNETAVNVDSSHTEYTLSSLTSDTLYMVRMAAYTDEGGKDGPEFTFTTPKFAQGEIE

Kd [1]: 2.93 nM
koff [1]: 0.00107 s⁻¹
kon [1]: 366000 M⁻¹ s⁻¹
Kd [2]: 9.02 nM
koff [2]: 0.0017 s⁻¹
kon [2]: 188000 M⁻¹ s⁻¹
B1: GST-LIF (human leukemia inhibitory factor as glutathione-S-transferase fusion protein) (ligand)
chain: not shown
